Experimental data reported in patent US10799605B2 (3B PHARMACEUTICALS GMBH, priority 2014, dated 2020).

Assays:
[1] = biological target: T1, CCR1 (h) (Homo sapiens (Human), UniProt P32246); experiment: ExpresSProfile: C-C chemokine receptor type 1, agonist radioligand; assay type: binding; details: Reference Compound
T1 sequence (P32246 whole entry, looked up): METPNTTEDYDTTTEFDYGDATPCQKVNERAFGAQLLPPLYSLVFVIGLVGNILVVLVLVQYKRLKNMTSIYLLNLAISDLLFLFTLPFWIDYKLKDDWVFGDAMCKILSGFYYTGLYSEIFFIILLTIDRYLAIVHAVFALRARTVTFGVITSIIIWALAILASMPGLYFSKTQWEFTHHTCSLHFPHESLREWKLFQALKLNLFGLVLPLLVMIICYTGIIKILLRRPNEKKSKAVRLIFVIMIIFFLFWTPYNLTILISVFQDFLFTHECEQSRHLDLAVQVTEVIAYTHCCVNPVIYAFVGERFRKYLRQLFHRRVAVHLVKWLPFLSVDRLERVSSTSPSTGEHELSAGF

[2] = in vivo; cited from earlier work

nH Ref [1] | Compound | blood-brain barrier crossing [2]
1.1 | MIP-1alpha | –
– | COc1cccc(OC)c1-c1cc(C(=O)NC2(C(=O)O)C3CC4CC(C3)CC2C4)nn1-c1ccc(C(=O)N(C)CCCN(C)C)cc1C(C)C (centres unmarked) [SR142948, 2-[(5-(2,6-Dimethoxy-phenyl)-1-{4-[(3-dimethylamino-propyl)-methyl-carbamoyl]-2-isopropyl-phenyl}-1H-pyrazole-3-carbonyl)-amino]-adamantane-2-carboxylic acid] | cross the blood-brain barrier
